Target: LEL CD81-SA labelled with Cy3 (UniProt P60033)
Experiment: dynamic light scattering + other: nanoparticle tracking analysis; nanotraps (LEL CD81-SA-Cy3 on PEG-b-PLA nanoparticles, 0.50 mg/mL) mixed with HC VMPs (E2-GFP on PEG-b-PLA nanoparticles, 0.15 mg/mL) in 0.01 M sodium phosphate buffer pH 7.4, 25 °C; aggregation monitored after 5, 10, 20 and 30 min

## chimeric E2 core-GFP protein (E2 core, 412-645 a.a., of hepatitis C virus fused with superfolder GFP) (from UniProt P27958 412-645) (domain or fragment)
  percentage of aggregates (DLS, after 30 min): 33%
